# Results: IntAct's records for PubMed 16415179
# B1: Transcriptional repressor p66-alpha (Homo sapiens), Q86YP4 (parent)
# chain: MTEEACRTRSQKRALERDPTEDDVESKKIKMERGLLASDLNTDGDMRVTPEPGAGPTQGLLRATEATAMAMGRGEGLVGDGPVDMRTSHSDMKSERRPPSPDVIVLSDNEQPSSPRVNGLTTVALKETSTEALMKSSPEERERMIKQLKEELRLEEAKLVLLKKLRQSQIQKEATAQKPTGSVGSTVTTPPPLVRGTQNIPAGKPSLQTSSARMPGSVIPPPLVRGGQQASSKLGPQASSQVVMPPLVRGAQQIHSIRQHSSTGPPPLLLAPRASVPSVQIQGQRIIQQGLIRVANVPNTSLLVNIPQPTPASLKGTTATSAQANSTPTSVASVVTSAESPASRQAAAKLALRKQLEKTLLEIPPPKPPAPEMNFLPSAANNEFIYLVGLEEVVQNLLETQGRMSAATVLSREPYMCAQCKTDFTCRWREEKSGAIMCENCMTTNQKKALKVEHTSRLKAAFVKALQQEQEIEQRLLQQGTAPAQAKAEPTAAPHPVLKQVIKPRRKLAFRSGEARDWSNGAVLQASSQLSRGSATTPRGVLHTFSPSPKLQNSASATALVSRTGRHSERTVSAGKGSATSNWKKTPLSTGGTLAFVSPSLAVHKSSSAVDRQREYLLDMIPPRSIPQSATWK
# Variants of: B1
# Settings: with mbd2_human MBD2, Q9UBB5
# Sequence of mbd2_human MBD2, Q9UBB5 (Q9UBB5 whole entry): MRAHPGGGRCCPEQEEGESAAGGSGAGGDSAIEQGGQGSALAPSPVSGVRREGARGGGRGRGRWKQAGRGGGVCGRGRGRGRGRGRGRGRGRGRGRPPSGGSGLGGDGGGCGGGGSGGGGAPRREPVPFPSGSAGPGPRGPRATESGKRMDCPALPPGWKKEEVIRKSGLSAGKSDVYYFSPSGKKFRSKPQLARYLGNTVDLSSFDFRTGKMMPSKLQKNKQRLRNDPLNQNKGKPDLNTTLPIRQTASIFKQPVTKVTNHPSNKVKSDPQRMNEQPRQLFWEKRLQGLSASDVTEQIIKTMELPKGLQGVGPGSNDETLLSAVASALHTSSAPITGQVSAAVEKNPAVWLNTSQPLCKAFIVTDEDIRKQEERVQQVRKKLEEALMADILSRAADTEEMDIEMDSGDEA
row,effect of a mutation on the interaction,Variant
1,decreasing interaction,K149R
